# Reference: patent publication EP4477665A1 (AffyXell Therapeutics Co., Ltd., dated 2024)
# B1: clone 230 DJ (designed binder)
# chain: IPGGLSEAKPATPEIQEIVDKVKPQLEEKTGETYGKLEAVQYKTQVVHYYVHYNDQGTNYYIKVRAGDNKYMHLKVFKSLWGENLFAKWEDLVLTGYQVDKNKDDELTGFGGGGSGGGGSGGGGSGGGGSGGGGSGGGGSMIPGGLSEAKPATPEIQEIVDKVKPQLEEKTGETYGKLEAVQYKTQVVHYYVHYNDQGTNYYIKVRAGDNKYMHLKVFKSLWGENLFAKWEDLVLTGYQVDKNKDDELTGFGGGGSGGGGSGGGGSGGGGSGGGGSGGGGSMIPGGLSEAKPATPEIQEIVDKVKPQLEEKTGETYGKLEAVQYKTQVVHYYVHYNDQGTNYYIKVRAGDNKYMHLKVFKSLWGENLFAKWEDLVLTGYQVDKNKDDELTGF
# B2: clone 230 (designed binder)
# chain: MIPGGLSEAKPATPEIQEIVDKVKPQLEEKTGETYGKLEAVQYKTQVVHYYVHYNDQGTNYYIKVRAGDNKYMHLKVFKSLWGENLFAKWEDLVLTGYQVDKNKDDELTGF
# B3: clone-230 XT75 (designed binder)
# chain: IPGGLSEAKPATPEIQEIVDKVKPQLEEKTGETYGKLEAVQYKTQVVHYYVHYNDQGTNYYIKVRAGDNKYMHLKVFKSLWGENLFAKWEDLVLTGYQVDKNKDDELTGFAEAAAKEAAAKEAAAKEAAAKEAAAKEAAAKMIPGGLSEAKPATPEIQEIVDKVKPQLEEKTGETYGKLEAVQYKTQVVHYYVHYNDQGTNYYIKVRAGDNKYMHLKVFKSLWGENLFAKWEDLVLTGYQVDKNKDDELTGFAEAAAKEAAAKEAAAKEAAAKEAAAKEAAAKMIPGGLSEAKPATPEIQEIVDKVKPQLEEKTGETYGKLEAVQYKTQVVHYYVHYNDQGTNYYIKVRAGDNKYMHLKVFKSLWGENLFAKWEDLVLTGYQVDKNKDDELTGFAEAAAKEAAAKEAAAKEAAAKEAAAKEAAAKMIPRGLSEAKPATPEIQEIVDKVKPQLEEKTGETYGKLEAVQYKTQVLANFFQRRWPGSTNYYIKVRAGDNKYMHLKVFNGPWKFRNTDRGADRVLTGYQVDKNKDDELTGF
# B4: clone-230 XT76 (designed binder)
# chain: IPGGLSEAKPATPEIQEIVDKVKPQLEEKTGETYGKLEAVQYKTQVVHYYVHYNDQGTNYYIKVRAGDNKYMHLKVFKSLWGENLFAKWEDLVLTGYQVDKNKDDELTGFAEAAAKEAAAKEAAAKEAAAKEAAAKEAAAKMIPGGLSEAKPATPEIQEIVDKVKPQLEEKTGETYGKLEAVQYKTQVVHYYVHYNDQGTNYYIKVRAGDNKYMHLKVFKSLWGENLFAKWEDLVLTGYQVDKNKDDELTGFAEAAAKEAAAKEAAAKEAAAKEAAAKEAAAKMIPGGLSEAKPATPEIQEIVDKVKPQLEEKTGETYGKLEAVQYKTQVVHYYVHYNDQGTNYYIKVRAGDNKYMHLKVFKSLWGENLFAKWEDLVLTGYQVDKNKDDELTGFAEAAAKEAAAKEAAAKEAAAKEAAAKEAAAKMIPGGLSEAKPATPEIQEIVDKVKPQLEEKTGETYGKLEAVQYKTQVVHYYVHYNDQGTNYYIKVRAGDNKYMHLKVFKSLWGENLFAKWEDLVLTGYQVDKNKDDELTGFAEAAAKEAAAKEAAAKEAAAKEAAAKEAAAKMIPRGLSEAKPATPEIQEIVDKVKPQLEEKTGETYGKLEAVQYKTQVLANFFQRRWPGSTNYYIKVRAGDNKYMHLKVFNGPWKFRNTDRGADRVLTGYQVDKNKDDELTGF
# Legend:
# [1] = biological target: T1, human CD40L (hCD40L antigen) (human, UniProt P29965 113-261, limits assumed); assay: cell-based or functional assay
# T1 sequence (looked up): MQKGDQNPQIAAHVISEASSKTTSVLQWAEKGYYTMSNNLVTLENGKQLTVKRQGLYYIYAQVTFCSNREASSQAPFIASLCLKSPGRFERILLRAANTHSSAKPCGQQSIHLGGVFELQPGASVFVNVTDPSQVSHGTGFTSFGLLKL
# [2] = biological target: T2, hCD40L expressed on hCD40L-HEK-293 cells (Crown Biosciences, C2041) (human, UniProt P29965 1-261); assay: flow cytometry on hCD40L-HEK293 cells, doses 0.7 to 500 nM
# T2 construct: whole, on cells; also called huCD40L HEK293
# T2 sequence (looked up): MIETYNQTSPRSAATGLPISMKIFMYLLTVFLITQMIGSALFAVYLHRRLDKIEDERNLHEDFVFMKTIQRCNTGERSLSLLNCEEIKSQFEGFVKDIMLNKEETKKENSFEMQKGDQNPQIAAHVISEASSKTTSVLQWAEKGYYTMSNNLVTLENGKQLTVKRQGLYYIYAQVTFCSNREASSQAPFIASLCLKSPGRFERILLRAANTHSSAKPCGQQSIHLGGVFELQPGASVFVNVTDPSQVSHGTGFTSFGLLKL
# human serum albumin = biological target: T3, human serum albumin (human, UniProt P02768 25-609); assay: bridging ELISA: capture on coated hCD40L, 10 uM HSA, anti-HSA detection
# T3 construct: also called HSA
# T3 sequence (P02768 25-609): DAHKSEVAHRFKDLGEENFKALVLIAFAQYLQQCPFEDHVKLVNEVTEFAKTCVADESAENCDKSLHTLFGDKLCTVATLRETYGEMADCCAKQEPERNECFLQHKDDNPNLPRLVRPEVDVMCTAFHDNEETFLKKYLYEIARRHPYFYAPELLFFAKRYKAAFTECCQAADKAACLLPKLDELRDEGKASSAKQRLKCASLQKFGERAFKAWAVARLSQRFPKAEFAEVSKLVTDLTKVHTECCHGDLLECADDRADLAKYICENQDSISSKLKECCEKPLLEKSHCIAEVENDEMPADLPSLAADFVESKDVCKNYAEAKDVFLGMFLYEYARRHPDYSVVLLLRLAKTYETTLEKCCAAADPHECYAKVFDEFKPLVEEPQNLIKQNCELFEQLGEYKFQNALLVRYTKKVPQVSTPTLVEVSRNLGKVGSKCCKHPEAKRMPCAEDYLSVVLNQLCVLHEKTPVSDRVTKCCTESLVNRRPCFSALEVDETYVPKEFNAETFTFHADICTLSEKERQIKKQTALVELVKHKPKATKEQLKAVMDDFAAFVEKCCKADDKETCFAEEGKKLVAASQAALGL
Binder,binding result (human serum albumin),other results
B1,,"EC50, HEK-Blue cell-based assay [1]: 5.99 nM"
B2,,binding result [2]: binds
B3,binds,
B4,binds,
